From patent publication US20130177579A1 (BIOALLIANCE C V, published 2013)

B1: antibody 6-90 (antibody, mouse IgM, V domains shown)
VH: EVELQQFGIEMVKPGASVKISCKASGYIFTDYHMDWVRQSHGKSLEWIGDIDPKYDRVTYNQKFKGKASLTADKSSSTAYMELRSLTSEDTAVYYCAKTGAYGDYLAYWGQGTLVTVSA
VL: DLVMTQTPLSLPVSLGDQASISCRSSQSLVHSDGNTYFYWYLQKPGQSPKLLIYKVSNRFSGVPDRFSAGGSGTYFTLKISRVEAEDLGVYFCSQTTHFPPTFGGGTKLEIKR
notes: Mouse IgM, kappa from a hybridoma; tested as hybridoma culture supernatant
B2: antibody 122-72 (antibody, V domains shown)
VH: EVQLVESGGGLVQPKGSLKLSCAASGFTFNTYAMNWVRQAPGKGLEWVARIRSKSNNYATYYADSVKDRFTISRDDSQSMLYLQMNNLKTEDTAMYYCVAYGSRNYWGQGTTLTVSS
VL: DIVMTQSPSSLTVTAGEKVTMSCKSSQSLLNSGNQKNYLTWYQQKPGQPPKLLIYWASTRESGVPDRFTGSGSGTDFTLTISSVQAEDLAVYYCQNDYSYPYTFGGGTKLEIKR
notes: Mouse IgM, kappa from a hybridoma; tested as hybridoma culture supernatant; Antibody 60-43 is said to have the same CDRs
B3: antibody 55-31 (antibody, mouse IgM, V domains shown)
VH: QVQLQQPGAELVKPGTSVKLSCKASGYNFTSYWINWVKLRPGQGLEWIGDIYPGSGSTNYNEKFKSKATLTVDTSSSTAYMQLSSLASEDSALYYCARSAYRYDWFAYWGQGTLVTVSA
VL: DIQMTQSPASLSVSVGETVTITCRASENIYSNLAWYQQKQGKSPQLLVYAATNLADGVPSRFSGSGSGTQYSLKINSLQSEDFGSYYCQHFWGTPYTFGGGTKLEIKR
notes: as for B1

Key:
[1] = target: human transferrin receptor expressed by nonhematopoietic cancer cells (human) (UniProt P02786); experiment: FACS, OMC-3 cells, 1/5X
[2] = target: T1, human transferrin receptor expressed by normal human cells (RBC, PMN, lymphocytes, monocytes, platelets, … (human, UniProt P02786 1-760)); experiment: FACS, PMN, donor D005, 1/10x
T1 construct: The assay is whole-cell FACS on normal donor cells; also called TfR on normal cells
Method: (§1) Preparation of PBMC and PMN: The whole blood was diluted with an equal volume of PBS and mixed with 1/10 volume of 15% Dextran solution. […] After centrifugation at 2200 rpm for 15 min (rotor: SORVALL, PN11788 and centrifuge: SORVALL, RT7), PBMC concentrated in the interface, were collected and washed with large volumes of FACS buffer (2% FBS in PBS) for future use. The PMN-rich pellet was collected, from which residual RBC was removed by hypotonic lysis in 0.2% NaCl.
(§2) 1×10⁵ cells were seeded in each well of a v-bottomed 96-well plate and incubated with 50 μl of hybridoma culture supernatant at 1× and 10× dilution, or isotype control antibody mouse IgM, κ (BD™, Cat. No. 557275) at concentration of 1 μg/ml. A 300× dilution of human cell hyper-immune serum was used as binding positive control for all cell types. PE-conjugated anti-human CD41a (Southern Biotech™, Cat. No. 9391-09) was used as a positive control for staining human platelets. Anti-sialyl Lewis x antibody (Millipore™, Cat. No. MAB2096) was used as a positive control for staining human PMN. Anti-human CD31 (Hycult™, Cat. No. HM2039) was used as a positive control for staining HUVEC. After 30 minutes incubation at 4° C., cells were washed twice with 200 μl FACS buffer (1×PBS containing 1% FBS), stained with 50 μl of 1 μg/ml goat F(ab′)2-anti-mouse IgG(H+L)-PE (Southern Biotech™, Cat. No. 1032-09) or 1 μg/ml goat F(ab′)2-anti-mouse IgM(H+L)-PE (Southern Biotech™, Cat. No. 1022-09) in FACS buffer. After 30 minutes of incubation at 4° C., cells were washed twice with FACS buffer and analyzed by flow cytometry (BD LSR, BD Life Sciences).

[3] = target: T1, human transferrin receptor expressed by …; experiment: FACS, RBC, donor D005, 1/10x
Method: (§3) The hyper-immuned serum (Hyp-serum) or the corresponding cell marker antibodies for certain cell types were included as positive controls.
as §2

[4] = target: human transferrin receptor expressed by nonhematopoietic cancer cells (human) (UniProt P02786); experiment: FACS, MDA-MB-453 cells, 1X
[5] = target: human transferrin receptor expressed by nonhematopoietic cancer cells (human) (UniProt P02786); experiment: FACS, SNU-16 cells, 1/5X
[6] = target: T1, human transferrin receptor expressed by …; experiment: FACS, RBC, donor D014, 1/10x
Method: as §3, §2

[7] = target: T1, human transferrin receptor expressed by …; experiment: FACS, PMN, donor D016, 1/10x
Method: as §1, §2

[8] = target: T1, human transferrin receptor expressed by …; experiment: FACS, lymphocytes, donor D102, 1/10x
Method: as §1, §2

[9] = target: human transferrin receptor expressed by nonhematopoietic cancer cells (human) (UniProt P02786); experiment: cell-based or functional assay
[10] = target: human transferrin receptor expressed by nonhematopoietic cancer cells (human) (UniProt P02786); experiment: FACS, HEC-1-A cells, 1X
[11] = target: T1, human transferrin receptor expressed by …; experiment: FACS, RBC, donor D016, 1/10x
Method: as §3, §2

[12] = target: T1, human transferrin receptor expressed by …; experiment: FACS, lymphocytes, donor D005, 1x
Method: as §3, §2

[13] = target: human transferrin receptor expressed by nonhematopoietic cancer cells (human) (UniProt P02786); experiment: FACS, OMC-3 cells, 1X
[14] = target: T1, human transferrin receptor expressed by …; experiment: FACS, platelets, donor D102, 1x
Method: as §3, §2

[15] = target: T1, human transferrin receptor expressed by …; experiment: FACS, monocytes, donor D102, 1/10x
Method: as §3, §2

[16] = target: human transferrin receptor expressed by nonhematopoietic cancer cells (human) (UniProt P02786); experiment: FACS, KLE cells, 1X
[17] = target: T1, human transferrin receptor expressed by …; experiment: FACS, lymphocytes, donor D102, 1x
Method: as §1, §2

[18] = target: human transferrin receptor expressed by nonhematopoietic cancer cells (human) (UniProt P02786); experiment: FACS, Kato III cells, 1X
[19] = target: human transferrin receptor expressed by nonhematopoietic cancer cells (human) (UniProt P02786); experiment: FACS, WiDr cells, 1/5X
[20] = target: human transferrin receptor expressed by nonhematopoietic cancer cells (human) (UniProt P02786); experiment: FACS, COLO205 cells, 1/5X
[21] = target: T1, human transferrin receptor expressed by …; experiment: FACS, monocytes, donor D005, 1/10x
Method: as §1, §2

T1 sequence (P02786 whole entry G142S): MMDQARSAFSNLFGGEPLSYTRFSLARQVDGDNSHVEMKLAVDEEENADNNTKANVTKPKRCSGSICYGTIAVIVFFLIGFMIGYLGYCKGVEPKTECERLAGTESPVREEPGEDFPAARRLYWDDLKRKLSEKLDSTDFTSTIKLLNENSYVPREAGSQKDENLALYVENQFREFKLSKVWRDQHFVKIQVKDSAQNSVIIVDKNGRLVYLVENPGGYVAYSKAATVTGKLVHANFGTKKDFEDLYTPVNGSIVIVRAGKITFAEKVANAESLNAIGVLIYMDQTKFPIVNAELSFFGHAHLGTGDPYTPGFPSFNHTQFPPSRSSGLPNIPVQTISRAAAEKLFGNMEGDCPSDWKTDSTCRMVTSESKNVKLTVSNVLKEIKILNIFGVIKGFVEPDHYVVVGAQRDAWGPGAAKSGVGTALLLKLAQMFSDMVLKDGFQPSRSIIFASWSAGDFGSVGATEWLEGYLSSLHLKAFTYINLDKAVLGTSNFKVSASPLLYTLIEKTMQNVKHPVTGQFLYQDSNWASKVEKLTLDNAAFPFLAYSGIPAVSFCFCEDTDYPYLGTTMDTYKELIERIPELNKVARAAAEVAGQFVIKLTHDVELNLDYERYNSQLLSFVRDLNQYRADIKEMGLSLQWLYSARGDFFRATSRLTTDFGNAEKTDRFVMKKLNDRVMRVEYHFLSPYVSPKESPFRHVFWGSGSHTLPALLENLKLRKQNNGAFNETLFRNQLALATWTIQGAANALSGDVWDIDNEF
Sequence of human transferrin receptor expressed by nonhematopoietic cancer cells (human) (P02786 whole entry G142S): as above

Binder	MFI [1] [MFI]	% positive cell binding [2] [%]	% positive cell binding [3] [%]	MFI [4] [MFI]	MFI [5] [MFI]	% positive cell binding [6] [%]	% positive cell binding [7] [%]	% positive cell binding [8] [%]	percentage of Annexin V positive and/or PI positive cells; COLO205; 1/2X (IgM 19.1) [9] [%]	percentage of Annexin V positive and/or PI positive cells; COLO205; 1/6X (IgM 19.1) [9] [%]	percentage of Annexin V positive and/or PI positive cells; COLO205; 1/18X (IgM 19.1) [9] [%]	percentage of Annexin V positive and/or PI positive cells; DLD1; 1/2X (IgM 24.3) [9] [%]	percentage of Annexin V positive and/or PI positive cells; DLD1; 1/6X (IgM 24.3) [9] [%]	percentage of Annexin V positive and/or PI positive cells; DLD1; 1/18X (IgM 24.3) [9] [%]	% positive cell binding [11] [%]	% positive cell binding [12] [%]	% positive cell binding [14] [%]	% positive cell binding [15] [%]	% positive cell binding [17] [%]	% positive cell binding [21] [%]	other results
B1	2150	< 1	< 1	147	3970	< 1	< 1	2	50.9	42.2	22.9	50.6	42.3	38.9	1	< 1	< 1	2	< 1	4	percentage of Annexin V positive and/or PI positive cells; H358; 1/2X (IgM 31.8) [9]: 50.7%; percentage of Annexin V positive and/or PI positive cells; H358; 1/6X (IgM 31.8) [9]: 49%; percentage of Annexin V positive and/or PI positive cells; H358; 1/18X (IgM 31.8) [9]: 46.9%; percentage of Annexin V positive and/or PI positive cells; Panc 02.03B; 1/2X (IgM 19.0) [9]: 46.7%; percentage of Annexin V positive and/or PI positive cells; Panc 02.03B; 1/6X (IgM 19.0) [9]: 28.7%; percentage of Annexin V positive and/or PI positive cells; Panc 02.03B; 1/18X (IgM 19.0) [9]: 24.5%; percentage of Annexin V positive and/or PI positive cells; SNU-16; 1/2X (IgM 30.0) [9]: 40.2%; percentage of Annexin V positive and/or PI positive cells; SNU-16; 1/6X (IgM 30.0) [9]: 37.2%; percentage of Annexin V positive and/or PI positive cells; SNU-16; 1/18X (IgM 30.0) [9]: 34.8%; MFI [10]: 57 MFI; MFI [13]: 3140 MFI; MFI [16]: 890 MFI; MFI [18]: 1410 MFI; MFI [19]: 1080 MFI; MFI [20]: 6160 MFI
B2	3040	< 1	< 1		5100	1	1	2	80.3	25.2	18.6	42.2	38.6	37.1	1	< 1	< 1	4	< 1	4	percentage of Annexin V positive and/or PI positive cells; H358; 1/2X (IgM 31.8) [9]: 70.8%; percentage of Annexin V positive and/or PI positive cells; H358; 1/6X (IgM 31.8) [9]: 70.1%; percentage of Annexin V positive and/or PI positive cells; H358; 1/18X (IgM 31.8) [9]: 63.9%; percentage of Annexin V positive and/or PI positive cells; Pan 02.03B; 1/2X (IgM 16.9) [9]: 31.5%; percentage of Annexin V positive and/or PI positive cells; Pan 02.03B; 1/6X (IgM 16.9) [9]: 20.5%; percentage of Annexin V positive and/or PI positive cells; Pan 02.03B; 1/18X (IgM 16.9) [9]: 20.5%; percentage of Annexin V positive and/or PI positive cells; SNU-16; 1/2X (IgM 30.0) [9]: 46.6%; percentage of Annexin V positive and/or PI positive cells; SNU-16; 1/6X (IgM 30.0) [9]: 43.5%; percentage of Annexin V positive and/or PI positive cells; SNU-16; 1/18X (IgM 30.0) [9]: 36.6%; percentage of Annexin V positive and/or PI positive cells; SU.86.86; 1/2X (IgM 12.1) [9]: 41.3%; percentage of Annexin V positive and/or PI positive cells; SU.86.86; 1/6X (IgM 12.1) [9]: 29.3%; percentage of Annexin V positive and/or PI positive cells; SU.86.86; 1/18X (IgM 12.1) [9]: 23.4%; MFI [19]: 2460 MFI; MFI [20]: 6340 MFI
B3	179	1	< 1	81		1	< 1	1							1	< 1	< 1	1	< 1	3	percentage of Annexin V positive and/or PI positive cells; DU145; 1/2X (IgM 19.5) [9]: 31%; percentage of Annexin V positive and/or PI positive cells; DU145; 1/6X (IgM 19.5) [9]: 35.4%; percentage of Annexin V positive and/or PI positive cells; DU145; 1/18X (IgM 19.5) [9]: 23.6%; MFI [10]: 1490 MFI; MFI [13]: 214 MFI; MFI [16]: 136 MFI; MFI [18]: 140 MFI
